Source: paper PMC9205196

Tests used:
FGFR1, biotinylated = FGFR1, biotinylated (UniProt P11362); assay: AlphaScreen or HTRF
[1] = molecular target: Recombinant human FGF2 (fibroblast growth factor-2), biotinylated (human); assay: AlphaScreen or HTRF
[2] = molecular target: Vitronectin (VN), biotinylated (UniProt P04004); assay: AlphaScreen or HTRF
[3] = molecular target: SDC1_(37): deglycosylated murine syndecan-1 ectodomain with p-propargyltyrosine at residue 37 (mouse) (UniProt P18828); assay: ELISA
[4] = molecular target: SDC1_(37HEP): murine syndecan-1 ectodomain with heparin conjugated at residue 37 (mouse) (UniProt P18828); assay: ELISA
[5] = molecular target: SDC1_(47HEP): murine syndecan-1 ectodomain with heparin conjugated at residue 47 (mouse) (UniProt P18828); assay: ELISA
[6] = molecular target: SDC1_(47HS): murine syndecan-1 ectodomain with heparan sulfate conjugated at residue 47 (mouse) (UniProt P18828); assay: ELISA

| EC50 (FGFR1, biotinylated) | EC50 of ternary complex formation with soluble non-tagged FGF2 (FGFR1, biotinylated) | EC50 [1] | EC50 [2] | EC50 [3] | EC50 [4] | EC50 [5] | EC50 [6] | Substance |
| --- | --- | --- | --- | --- | --- | --- | --- | --- |
| > 20 nM | > 20 nM | > 100 nM | > 100 nM | – | – | – | – | SDC1_(37): deglycosylated murine syndecan-1 ectodomain with p-propargyltyrosine at residue 37 (from UniProt P18828 23-255) (domain or fragment) |
| – | – | – | – | 100 nM | 10 nM | 5 nM | 40 nM | Recombinant human αvβ3 integrin (from UniProt P06756-1 31-992; P05106 27-718) (complex) |
| 0.3 nM | 0.007 nM | 0.4 nM | 1 nM | – | – | – | – | SDC1_(37HEP): murine syndecan-1 ectodomain with heparin conjugated at residue 37 (from UniProt P18828 23-255) (domain or fragment) |
| 0.2 nM | 0.007 nM | 0.3 nM | – | – | – | – | – | SDC1_(47HEP): murine syndecan-1 ectodomain with heparin conjugated at residue 47 (from UniProt P18828 23-255) (domain or fragment) |
